The text below walks through data of US20230257470A1 (published 2023).

Holding throughout (assay): SPR (Biacore), FcγR over captured antibody; binding amount relative to IL6R-BF648/IL6R-L x100
A general note: SPR reads the build-up and loss of mass on a sensor chip optically.

The target of assay [1] is T1, human FcγRIa (human, UniProt P12314 16-292, limits assumed).
T1 construct: also called FcyRIa; CD64

Assay [2] deals with T2, human FcγRIIa type H (human, UniProt P12318 36-217).
T2 construct: also called FcyRIIaH; FcγRIIa(H)
T2 sequence: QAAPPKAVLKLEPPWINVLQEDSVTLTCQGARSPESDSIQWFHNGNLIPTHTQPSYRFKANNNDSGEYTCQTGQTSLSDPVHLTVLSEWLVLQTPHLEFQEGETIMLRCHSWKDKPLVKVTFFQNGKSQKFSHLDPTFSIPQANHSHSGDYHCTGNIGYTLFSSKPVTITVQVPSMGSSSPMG

For assay [3], the target named is T3, human FcγRIIb (human, UniProt P31994 43-217, limits assumed).
T3 construct: also called FcyRIfb; FcγIIB
T3 sequence: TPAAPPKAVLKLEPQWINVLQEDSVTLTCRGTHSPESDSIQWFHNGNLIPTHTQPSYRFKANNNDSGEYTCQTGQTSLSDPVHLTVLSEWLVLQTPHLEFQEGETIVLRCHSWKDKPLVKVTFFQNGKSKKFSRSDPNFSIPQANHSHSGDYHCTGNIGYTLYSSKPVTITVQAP

Assay [4] has as its target T4, human FcγRIIIa type V (human, UniProt P08637 17-208, limits assumed).
T4 construct: also called FcyRIIIa; FcγRIIIaV

T1 sequence (P12314 16-292 limits assumed): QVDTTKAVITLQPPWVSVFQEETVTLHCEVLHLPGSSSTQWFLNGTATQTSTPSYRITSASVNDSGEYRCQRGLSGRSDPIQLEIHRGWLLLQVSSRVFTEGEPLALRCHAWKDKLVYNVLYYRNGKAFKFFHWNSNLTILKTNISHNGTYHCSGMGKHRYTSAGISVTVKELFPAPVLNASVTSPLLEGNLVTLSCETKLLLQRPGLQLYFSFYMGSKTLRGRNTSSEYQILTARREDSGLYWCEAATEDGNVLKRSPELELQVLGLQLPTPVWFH
T4 sequence (P08637 other isoform, or with tags, fused parts or gaps limits assumed): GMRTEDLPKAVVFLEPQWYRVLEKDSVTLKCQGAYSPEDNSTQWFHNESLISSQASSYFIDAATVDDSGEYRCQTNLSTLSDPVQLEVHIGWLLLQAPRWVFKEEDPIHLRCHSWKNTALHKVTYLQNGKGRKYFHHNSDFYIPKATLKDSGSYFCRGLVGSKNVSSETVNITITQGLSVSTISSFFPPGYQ

B1: IL6R-BP103/IL6R-L (antibody, human IgG1, name in EU numbering)
heavy: QVQLQESGPGLVKPSETLSLTCAVSGHSISHDHAWSWVRQPPGEGLEWIGFISYSGITNYNPSLQGRVTISRDNSKNTLYLQMNSLRAEDTAVYYCARSLARTTAMDYWGEGTLVTVSSASTKGPSVFPLAPSSKSTSGGTAALGCLVKDYFPEPVTVSWNSGALTSGVHTFPAVLQSSGLYSLSSVVTVPSSSLGTQTYICNVNHKPSNTKVDKKVEPKSCDKTHTCPPCPAPELLGGDSVFLFPPKPKDTLMISRTPEVTCVVVDVVHEDPEVKFNWYVDGVEVHNAKTKPREEQYNSTYRVVSVLTVLHQDWLNGKEYKCKVSNKALPAPIEKTISKAKGQPREPQVYTLPPSRDELTKNQVSLTCLVKGFYPSDIAVEWESNGQPENNYKTTPPVLDSDGSFFLYSKLTVDKSRWQQGNVFSCSVMHEALHNHYTQESLSLSP
light: DIQMTQSPSSLSASVGDRVTITCRASQDISSYLNWYQQKPGKAPKLLIYYTSRLHSGVPSRFSGSGSGTDFTFTISSLQPEDIATYYCQQGNTLPYTFGQGTKVEIK
Consider B1, for which the relative binding in assay [1] is 56 % of IL6R-BF648/IL6R-L; in assay [2], 69 % of IL6R-BF648/IL6R-L; in assay [3] it was 107 % of IL6R-BF648/IL6R-L; in assay [4], 77 % of IL6R-BF648/IL6R-L.

B2: IL6R-BP107/IL6R-L (antibody, human IgG1, name in EU numbering)
heavy: QVQLQESGPGLVKPSETLSLTCAVSGHSISHDHAWSWVRQPPGEGLEWIGFISYSGITNYNPSLQGRVTISRDNSKNTLYLQMNSLRAEDTAVYYCARSLARTTAMDYWGEGTLVTVSSASTKGPSVFPLAPSSKSTSGGTAALGCLVKDYFPEPVTVSWNSGALTSGVHTFPAVLQSSGLYSLSSVVTVPSSSLGTQTYICNVNHKPSNTKVDKKVEPKSCDKTHTCPPCPAPELLGGDSVFLFPPKPKDTLMISRTPEVTCVVVDVSEEDPEVKFNWYVDGVEVHNAKTKPREEQYNSTYRVVSVLTVLHQDWLNGKEYKCKVSNKALPAPIEKTISKAKGQPREPQVYTLPPSRDELTKNQVSLTCLVKGFYPSDIAVEWESNGQPENNYKTTPPVLDSDGSFFLYSKLTVDKSRWQQGNVFSCSVMHEALHNHYTQESLSLSP
light: DIQMTQSPSSLSASVGDRVTITCRASQDISSYLNWYQQKPGKAPKLLIYYTSRLHSGVPSRFSGSGSGTDFTFTISSLQPEDIATYYCQQGNTLPYTFGQGTKVEIK
Take B2: the relative binding is 123 % of IL6R-BF648/IL6R-L in assay [1], 114 % of IL6R-BF648/IL6R-L in assay [2], 118 % of IL6R-BF648/IL6R-L in assay [3] and 129 % of IL6R-BF648/IL6R-L in assay [4].

B3: IL6R-BP106/IL6R-L (antibody, human IgG1, name in EU numbering)
heavy: QVQLQESGPGLVKPSETLSLTCAVSGHSISHDHAWSWVRQPPGEGLEWIGFISYSGITNYNPSLQGRVTISRDNSKNTLYLQMNSLRAEDTAVYYCARSLARTTAMDYWGEGTLVTVSSASTKGPSVFPLAPSSKSTSGGTAALGCLVKDYFPEPVTVSWNSGALTSGVHTFPAVLQSSGLYSLSSVVTVPSSSLGTQTYICNVNHKPSNTKVDKKVEPKSCDKTHTCPPCPAPELLGGDSVFLFPPKPKDTLMISRTPEVTCVVVDVSDEDPEVKFNWYVDGVEVHNAKTKPREEQYNSTYRVVSVLTVLHQDWLNGKEYKCKVSNKALPAPIEKTISKAKGQPREPQVYTLPPSRDELTKNQVSLTCLVKGFYPSDIAVEWESNGQPENNYKTTPPVLDSDGSFFLYSKLTVDKSRWQQGNVFSCSVMHEALHNHYTQESLSLSP
light: DIQMTQSPSSLSASVGDRVTITCRASQDISSYLNWYQQKPGKAPKLLIYYTSRLHSGVPSRFSGSGSGTDFTFTISSLQPEDIATYYCQQGNTLPYTFGQGTKVEIK
B3: the relative binding in assay [1] is 127 % of IL6R-BF648/IL6R-L; in assay [2] it was 110 % of IL6R-BF648/IL6R-L; in assay [3], 116 % of IL6R-BF648/IL6R-L; in assay [4] it was 127 % of IL6R-BF648/IL6R-L.
